Assay results from article PMC10009755 (Journal of Medicinal Chemistry, 2023).

Biological target: T1, wild-type ubiquitin (UniProt P0CG48 1-76)
T1 construct: ubiquitin, the cut product of the ubiquitin precursors; called 'wild-type ubiquitin'
Experiment: SPR; USP21 immobilised by amine coupling on a CM5 chip; Biacore S200, A-B-A injection; 1 uM compound 18 as analyte A, then ubiquitin titrated in 1:2 dilutions from 25 uM; 15 °C
Settings: both partners purified

- binding result: binds
B1: human USP21 (Q9UK80, 209-563) (domain or fragment, UniProt Q9UK80 209-563, looked up)
chain: SGHVGLRNLGNTCFLNAVLQCLSSTRPLRDFCLRRDFRQEVPGGGRAQELTEAFADVIGALWHPDSCEAVNPTRFRAVFQKYVPSFSGYSQQDAQEFLKLLMERLHLEINRRGRRAPPILANGPVPSPPRRGGALLEEPELSDDDRANLMWKRYLEREDSKIVDLFVGQLKSCLKCQACGYRSTTFEVFCDLSLPIPKKGFAGGKVSLRDCFNLFTKEEELESENAPVCDRCRQKTRSTKKLTVQRFPRILVLHLNRFSASRGSIKKSSVGVDFPLQRLSLGDFASDKAGSPVYQLYALCNHSGSVHYGHYTALCRCQTGWHVYNDSRVSPVSENQVASSEGYVLFYQLMQEPPR
notes: cDNA optimized for expression in E. coli; The His tag is thrombin-cleavable; also called recombinant USP21; source: E. coli BL21(DE3), purified (Ni-NTA, MonoS cation exchange, SEC)
